The text below walks through data of patent publication US6864363B2 (priority 2000, dated 2005).

One series relates to P. gingivalis DPP-7. The series can be described thus: Endopeptidase activity of DPP-7 on protein substrates and plasma inhibitors. Type of series: biochemical, Porphyromonas gingivalis.
Series [1] is described as follows: pH optimum and stability of purified DPP-7 (activity against H-Ala-Phe-pNA). Type of series: biochemical, Porphyromonas gingivalis. The method, then: Kinetic Analysis—Routinely, the dipeptidylpeptidase amidolytic activity was measured with H-Ala-Phe-pNA (1 mM) in 0.2 M HEPES, pH 7.8 at 37° C. The reaction was followed for specific time intervals in a thermostated ELISA reader (SpectraMax, Applied Biosystem) and the release of p-nitroaniline was monitored at 405 nm. Other p-nitroanilide substrates were used in the same manner. For inhibition studies, the enzyme was first preincubated with an inhibitor for 15 minutes at 37° C., substrate added, and residual activity recorded. The initial steady-state velocity (v0) was determined by continuous assay for the range of substrate concentrations (100 nM to 1 mM). Km and Vmax were determined by hyperbolic regression of the kinetic data using the software package Hyper Version 1.02 obtained from Dr. J. S. Easterby (University of Liverpool, UK).
pH Optimum and Stability—Purified DPP-7 was active against H-Ala-Phe-pNA over a broad pH range, from neutral to basic pH (6.5-9.0) (FIG. 3). This activity also changed with the ionic strength of the buffer, reaching 200% at 0.5 M NaCl concentration in 100 mM HEPES, pH 8.0. DPP-7 was stable in 0.2 M HEPES, pH 8.0, for one week at 4° C. […] After 3 hours incubation at either room temperature or 37° C., activity was reduced to 62% and 20%, respectively. The optimum temperature for the hydrolysis of H-Ala-Phe-pNA was determined to be 43° C.

Turning to insulin β chain, the “endopeptidase activity of DPP-7 on protein substrate” value in the series with P. gingivalis DPP-7 is on record as “did not show any endopeptidase activity”.

On to gelatin, for which, in the series on P. gingivalis DPP-7, the “endopeptidase activity of DPP-7 on protein substrate” value is “did not show any endopeptidase activity”.

B1: DPP-7: P. gingivalis dipeptidylpeptidase-7, a 76 kDa serine protease purified from the membrane fraction (protein, listed as Porphyromonas gingivalis)
chain: MQMKLKSILLGAALLLGASGVAKADKGMWLLNELNQENLDRMRELGFTLPLDSLYSFDKPSIANAVVIFGGGCTGITVSDQGLIFTNHHCGYGAIQSQSTVDHDYLRDGFVSRTMGEELPIPGLSVKYLRKIVKVTDKVEGQLKGITDEMERLRKAQEVCQELAKKENADENQLCIVEPFYSNNEYFLIVYDVFKDVRMVFAPPSSVGKFGGDTDNWMWPRHTGDFSVFRVYAGADNRPAEYSKDNKPYKPVYFAAVSMQGYKADDYAMTIGFPGSTDRYLTSWGVEDRIENENNPRIEVRGIKQGIWKEAMSADQATRIKYASKYAQSANYWKNSIGMNRGLARLDVIGRKRAEERAFADWIRKNGKSAVYGDVLSSLEKAYKEGAKANREMTYLSETLFGGTEVVRFAQFANALATNPDAHAGILKSLDDKYKDYLPSLDRKVLPAMLDIVRRRIPADKLPDIFKNVIDKKFKGDTKKYADFVFDKSVVPYSDKFHAMLKSMDKEKFAKAIEKDPAVELSKSVIAAARAIQADAMANAYAIEKGKRLFFAGLREMYPGRALPSDANFTMRMSYGSIKGYEPQDGAWYNYHTTGKGVLEKQDPKSDEFAVQENILDLFRTKNYGRYAENGQLHIAFLSNNDITGGNSGSPVFDKNGRLIGLAFDGNWEAMSGDIEFEPDLQRTISVDIRYVLFMIDKWGQCPRLIQELKLI
Consider B1, for which the “optimum temperature for the hydrolysis of H-Ala-Phe-pNA” value in series [1] was found to be 43 °C. In series [1] (0.2 M HEPES, pH 8.0, one week at 4° C.), the stability entry is given as “stable”. The “activity with ionic strength of the buffer” value in series [1] (0.5 M NaCl in 100 mM HEPES, pH 8.0) was 200%. Also, the “activity remaining after incubation” value in series [1] (3 hours at 37° C.) came out at 20%; in series [1] (3 hours at room temperature), 62%. Also, the “stability, loss of activity” value in series [1] (kept frozen at −80° C. for one month) is on record as “no appreciable loss of activity”.
